Patent publication US20240377408A1
Blank lines part the entries; values can stand above or below the binder they belong to.

How the values were obtained:
[1] = biological target: biotinylated peptide M64-P1-P2-ΔK-(PEG9)(PEG9)-K(Biotin) with P1 = V; experiment: BLI, biotinylated peptide on streptavidin tips, binder in solution
[2] = biological target: biotinylated peptide M64-P1-P2-ΔK-(PEG9)(PEG9)-K(Biotin) with P1 = T; experiment: as above

Kd [1]: < 350 nM
B1: S279_0004 (designed binder, not shown: small tags and cut ends; large carriers)
chain: EWGYASHNGPDHWHELFPNAKGENQSPIELHTKDIRHDPSLQPWSVSYDGGSAKTILNNGKTLGVVFDDTYDRSMLRGGPLPGPYRLREFHLHWGSSDDHGSEHTVDGVKYAAELHLLHWNPKYNTFKEALKQRDGLAVIGIFLKIGHENGEFQIFLDALDKIKTKGKEAPFTKFDPSSLFPASRDYWTYQGSMTIPPLMEAVVWLLLKEPMTVSSDQMAKLRSLLSSAENEPPVPLVSNWRPPQPINNRVVRASFK

Kd [1]: 20 nM
koff [1]: 0.000473 s⁻¹
kon [1]: 23700 M⁻¹ s⁻¹
Kd [2]: 488 nM
koff [2]: 0.0111 s⁻¹
kon [2]: 23300 M⁻¹ s⁻¹
B2: Synthetic binder, S279_0004 (designed binder)
chain: B1 chain
